B1: Hairpin Ribozyme (parent)
chain: GUCCUCUUUCACGUGCGCGUGAAAGAGAGAAGUGAACCAGAGAAACACACGUUGUGGUAUAUUACCUGGUA

Variants of: B1
Test: self-cleavage, relative activity (ratio to wild type); higher = more cleavage; co-transcriptional

Row | Variant | self-cleavage
1 | G34A G68C | 0.283
2 | G34A G68A | 0.246
3 | G34C A44C | 0.116
4 | U33G C38A | 0.139
5 | U33G C38U | 0.204
6 | U33G C38G | 0.128
7 | G34A A41G | 1.3
8 | G34U U58C | 1.53
9 | G34U U58G | 1.25
10 | G34A U55A | 0.518
11 | G34A U55G | 0.541
12 | U33G U62C | 0.0629
13 | G34A A59U | 0.203
14 | G34A A59C | 0.148
15 | G34U U60A | 1.52
16 | U33C U60C | 0.128
17 | G34U A36C | 1.02
18 | G34U A36G | 0.909
19 | U33G G69C | 0.038
20 | G34A C46G | 0.159
21 | G34C U52C | 1.6
22 | U33G A45U | 0.0465
23 | G34A C66G | 0.184
24 | G34A C66U | 0.609

Row | Variant | self-cleavage
25 | G34U U67G | 0.658
26 | U33C G57C | 0.0819
27 | G34C U67A | 0.451
28 | G34U G56U | 0.225
29 | A35C A36C | 0.517
30 | G34U G68U | 0.95
31 | G34U G68C | 0.686
32 | U33C G42C | 0.0894
33 | U33C G42U | 0.115
34 | G34U G40C | 0.232
35 | G34U G40A | 0.751
36 | U33C U58G | 0.0694
37 | U33C U58A | 0.0907
38 | G34A A44G | 0.259
39 | G34A A44C | 0.223
40 | G34A U63A | 0.259
41 | G34A U63G | 0.157
42 | G34A U70A | 1.14
43 | G34A C37G | 0.519
44 | G34U A45U | 0.351
45 | G34A U58C | 1.11
46 | G34A C38A | 0.267
47 | G34A C38G | 0.195
48 | G34C A61U | 1.24

Row | Variant | self-cleavage
49 | G34C A36G | 1.24
50 | G34A C65A | 1.26
51 | U33G U60C | 0.195
52 | G34C U58C | 1.4
53 | U33G C65A | 0.189
54 | U33G C65U | 0.0212
55 | G34U C50A | 1.13
56 | G34A A71G | 1.41
57 | U33C G40C | 0.0896
58 | G34A G54U | 0.719
59 | U33C U52C | 0.177
60 | U33G A49U | 0.218
61 | G34A U52C | 0.857
62 | U33C G54U | 0.141
63 | U33C G54A | 0.0427
64 | U33C G54C | 0.163
65 | G34U G51A | 1.57
66 | G34A G42C | 0.516
67 | G34A G42A | 0.356
68 | U33C U53G | 0.299
69 | G34U C65G | 1.35
70 | U33C C50U | 0.0772
71 | U33C C50G | 0.0836
72 | G34A U60C | 1.5

Row | Variant | self-cleavage
73 | G34A U60A | 1.13
74 | G34C A64C | 0.578
75 | G34A U62G | 0.347
76 | G34A U62C | 0.38
77 | G34U U70A | 1.43
78 | G34U U70C | 1.43
79 | G34A G56C | 0.13
80 | G34A G56U | 0.128
81 | G34A A64C | 0.349
82 | G34U G42C | 1.17
83 | G34C A41U | 1.42
84 | G34U U63A | 0.243
85 | G34C A71U | 1.27
86 | G34U U52C | 0.926
87 | G34U U52G | 0.896
88 | U33G A47G | 0.0744
89 | U33G A47U | 0.105
90 | G34A A36C | 0.956
91 | U33G U52G | 0.0362
92 | U33G A36C | 0.0918
93 | G34U A59G | 0.23
94 | G34U A59U | 0.192
95 | G34C G68U | 0.658
96 | G34C A47U | 0.465

Row | Variant | self-cleavage
97 | G34C A47G | 0.448
98 | U33C U55C | 0.173
99 | G34U A47U | 0.876
100 | G34U A47G | 0.444
101 | U33G G42A | 0.0778
102 | U33G C66A | 0.0596
103 | U33G C66G | 0.0993
104 | G34U U62C | 1.23
105 | G34C G54C | 0.735
106 | G34A G57C | 0.247
107 | G34A G57U | 0.461
108 | U33C C66G | 0.112
109 | U33G A59U | 0
110 | U33G A59G | 0.204
111 | G34A A49U | 0.174
112 | G34C U70G | 1.23
113 | G34C U70A | 1.12
114 | U33C U63G | 0.0654
115 | U33G A35U | 0.16
116 | U33G A35C | 0.333
117 | U33G G34A | 0.317
118 | G34C A43U | 0.233
119 | G34C A43C | 0.144
120 | G34C U63C | 0.506

Row | Variant | self-cleavage
121 | G34U C46A | 0.239
122 | U33C U62A | 0.278
123 | U33C U62G | 0.0931
124 | U33C U62C | 0.0427
125 | G34C C37U | 1.34
126 | G34U C37A | 0.946
127 | G34A G40C | 0.174
128 | U33G U58A | 0.0636
129 | G34C A59G | 0.174
130 | G34C G69A | 0.896
131 | G34U A39C | 0.857
132 | G34C A45U | 0.33
133 | G34U U55A | 1.48
134 | G34U U55G | 1.27
135 | U33G G56U | 0.244
136 | U33G G56C | 0.0919
137 | U33G A41U | 0.251
138 | U33G A41C | 0.156
139 | U33G G68C | 0.0688
140 | U33C C46U | 0.0782
141 | U33G U63A | 0.126
142 | U33G U63C | 0.217
143 | G34C G51U | 1.4
144 | G34A C50A | 0.312

Row | Variant | self-cleavage
145 | G34C | 1.4
146 | G34A | 1.21
147 | G34U | 1.42
148 | U33G A44U | 0.23
149 | U33G A44C | 0.0874
150 | U33G A44G | 0.0996
151 | U33G U70A | 0.121
152 | U33C U70A | 0.0822
153 | U33G A64C | 0.0723
154 | G34A A45U | 0.0941
155 | G34A A45G | 0.435
156 | G34C A39G | 1.03
157 | G34C A39U | 1.02
158 | G34A A43C | 0.229
159 | G34A A61C | 0.336
160 | G34C U62C | 1.1
161 | U33C G34U | 0.348
162 | G34C G40A | 0.576
163 | U33G C48A | 0.158
164 | G34A G51U | 1.28
165 | G34C C38A | 0.563
166 | G34C C38U | 1.28
167 | G34C C38G | 0.683
